Data reported in the supplement of paper PMC7877785.
± gives the uncertainty stated by the source.

Assay: self-splicing fitness, log relative to wild type (ln ratio); higher = more splicing; Tetrahymena group I intron in knt gene, E. coli kanamycin selection, DiMSum; sequences stand for … in CUCUCU…GGAGGGAAAAGUUAUCAGGCAUGCACCUGGUAGCUAGUCUUUAAACCAAUAGAUUGCAUCGGUUUAAAAGGCAAGACCGUCAAAUUGCGGGAAAGGGGUCAACAGCCGUUCAGUACCAAGUCUCAGGGGAAACUUUGAGAUGGCCUUGCAAAGGGUAUGGUAAUAAGCUGACGGACAUGGUCCUAACCACGCAGCCAAGUCCUAAGUCAACAGAUCUUCUGUUGAUAUGGAUGCAGUUCACAGACUAAAUGUCGGUCGGGGAAGAUGUAUUCUUCUCAUAAGAUAUAGUCGGACCUCUCCUUAAUGGGAGCUAGCGGAUGAAGUGAUGCAACACUGGAGCCGCUGGGAACUAAUUUGUAUGCGAAAGUAUAUUGAUUAGUUUUGGAGUACUCGUGGUCG
How it was run: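 DiMSum derived fitness as the error-weighted combination of fold changes across replicates, kanamycin versus no kanamycin, normalised to wild type. E. coli BL21(DE3) held the library, which randomised all eight P1ex-region intron nucleotides within the knt kanamycin-resistance gene on pET-22b(+). Six replicate transformations grew overnight at 37°C or 30°C on LB agar with or without 25 μg/mL kanamycin, also containing 100 μg/mL carbenicillin, 50 μM IPTG and 0.2% rhamnose, and pooled colonies were amplicon-sequenced on an Illumina HiSeq 2500.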

## GACGAGCAAUAUUACGACUU
30 °C
  self-splicing fitness (ln): -0.586 ± 0.17
37 °C
  self-splicing fitness (ln): 0.25 ± 0.19

## UUCAAGCAAUAUUACGGUUU
30 °C
  self-splicing fitness (ln): -3.08 ± 0.21
37 °C
  self-splicing fitness (ln): -1.84 ± 0.17

## ACAUAGCAAUAUUACGAUCA
30 °C
  self-splicing fitness (ln): -1.71 ± 0.087
37 °C
  self-splicing fitness (ln): -0.779 ± 0.098

## UCAGAGCAAUAUUACGUCAG
30 °C
  self-splicing fitness (ln): -2.84 ± 0.3
37 °C
  self-splicing fitness (ln): -2.41 ± 0.29

## UGCUAGCAAUAUUACGAAGA
37 °C
  self-splicing fitness (ln): -2.09 ± 0.2

## AGCUAGCAAUAUUACGACUU
30 °C
  self-splicing fitness (ln): -0.59 ± 0.11
37 °C
  self-splicing fitness (ln): -0.0618 ± 0.12

## CAGGAGCAAUAUUACGUCGC
30 °C
  self-splicing fitness (ln): -3.25 ± 0.34
37 °C
  self-splicing fitness (ln): -1.6 ± 0.29

## AGAUAGCAAUAUUACGCCAU
30 °C
  self-splicing fitness (ln): -2.38 ± 0.12
37 °C
  self-splicing fitness (ln): -1.27 ± 0.13

## UCGUAGCAAUAUUACGCUAG
30 °C
  self-splicing fitness (ln): -2.95 ± 0.26
37 °C
  self-splicing fitness (ln): -2.32 ± 0.29

## GUUAAGCAAUAUUACGACAC
30 °C
  self-splicing fitness (ln): -0.925 ± 0.13
37 °C
  self-splicing fitness (ln): 0.479 ± 0.19

## CUUCAGCAAUAUUACGGUGU
30 °C
  self-splicing fitness (ln): -4.48 ± 0.21
37 °C
  self-splicing fitness (ln): -3.73 ± 0.25

## UUAGAGCAAUAUUACGUCGG
30 °C
  self-splicing fitness (ln): -1.11 ± 0.12
37 °C
  self-splicing fitness (ln): -0.455 ± 0.14

## CGUUAGCAAUAUUACGGCCA
30 °C
  self-splicing fitness (ln): -1.01 ± 0.29
37 °C
  self-splicing fitness (ln): -2.55 ± 0.46

## GCAAAGCAAUAUUACGAGUA
30 °C
  self-splicing fitness (ln): -2.1 ± 0.087
37 °C
  self-splicing fitness (ln): -1.15 ± 0.086

## GAUGAGCAAUAUUACGAAAU
30 °C
  self-splicing fitness (ln): -1.53 ± 0.18
37 °C
  self-splicing fitness (ln): -1.92 ± 0.37

## AUAAAGCAAUAUUACGGAGA
30 °C
  self-splicing fitness (ln): -3.18 ± 0.19
37 °C
  self-splicing fitness (ln): -1.86 ± 0.19

## GAUAAGCAAUAUUACGGGUA
30 °C
  self-splicing fitness (ln): -1.69 ± 0.14
37 °C
  self-splicing fitness (ln): -1.37 ± 0.17

## AAGAAGCAAUAUUACGGACA
30 °C
  self-splicing fitness (ln): -1.66 ± 0.092
37 °C
  self-splicing fitness (ln): -0.389 ± 0.096

## AAGCAGCAAUAUUACGCUCA
30 °C
  self-splicing fitness (ln): 0.661 ± 0.12
37 °C
  self-splicing fitness (ln): -0.0809 ± 0.2

## UCGGAGCAAUAUUACGAAGA
37 °C
  self-splicing fitness (ln): -2.3 ± 0.42

## UAGAAGCAAUAUUACGGGAU
30 °C
  self-splicing fitness (ln): -4.15 ± 0.23
37 °C
  self-splicing fitness (ln): -2.36 ± 0.18

## AUCCAGCAAUAUUACGAGAA
30 °C
  self-splicing fitness (ln): -2.6 ± 0.24
37 °C
  self-splicing fitness (ln): -1.22 ± 0.22

## AUGAAGCAAUAUUACGUCGG
30 °C
  self-splicing fitness (ln): -0.496 ± 0.1
37 °C
  self-splicing fitness (ln): -0.498 ± 0.11

## GCAUAGCAAUAUUACGGCCC
30 °C
  self-splicing fitness (ln): -0.542 ± 0.32
37 °C
  self-splicing fitness (ln): -0.431 ± 0.37

## AUGAAGCAAUAUUACGCGGU
30 °C
  self-splicing fitness (ln): -2.88 ± 0.24
37 °C
  self-splicing fitness (ln): -1.71 ± 0.2

## UUGUAGCAAUAUUACGGGGC
30 °C
  self-splicing fitness (ln): -3.56 ± 0.37
37 °C
  self-splicing fitness (ln): -3.67 ± 0.46

## GAUGAGCAAUAUUACGUCAU
30 °C
  self-splicing fitness (ln): -3.15 ± 0.32
37 °C
  self-splicing fitness (ln): -2.99 ± 0.32

## GAUCAGCAAUAUUACGUCCA
30 °C
  self-splicing fitness (ln): -0.96 ± 0.18
37 °C
  self-splicing fitness (ln): -0.173 ± 0.17

## AGGAAGCAAUAUUACGCAAU
30 °C
  self-splicing fitness (ln): -2.58 ± 0.25
37 °C
  self-splicing fitness (ln): -2 ± 0.21

## CGCGAGCAAUAUUACGACUC
37 °C
  self-splicing fitness (ln): -1.14 ± 0.31

## CAUUAGCAAUAUUACGAUCC
37 °C
  self-splicing fitness (ln): 0.538 ± 0.22

## GCUGAGCAAUAUUACGCUCG
30 °C
  self-splicing fitness (ln): -2.7 ± 0.36
37 °C
  self-splicing fitness (ln): -0.729 ± 0.26

## CUCAAGCAAUAUUACGUGCG
30 °C
  self-splicing fitness (ln): -2.81 ± 0.14
37 °C
  self-splicing fitness (ln): -0.8 ± 0.12

## CCACAGCAAUAUUACGUCAU
30 °C
  self-splicing fitness (ln): -3.67 ± 0.16
37 °C
  self-splicing fitness (ln): -2.81 ± 0.16

## CUCGAGCAAUAUUACGGGUA
30 °C
  self-splicing fitness (ln): -4.2 ± 0.39
37 °C
  self-splicing fitness (ln): -1.81 ± 0.16

## UAGUAGCAAUAUUACGUGCU
30 °C
  self-splicing fitness (ln): -1.79 ± 0.11
37 °C
  self-splicing fitness (ln): -0.826 ± 0.12

## AUGUAGCAAUAUUACGUUCG
30 °C
  self-splicing fitness (ln): -0.997 ± 0.095
37 °C
  self-splicing fitness (ln): -0.356 ± 0.12

## CCAGAGCAAUAUUACGACCU
30 °C
  self-splicing fitness (ln): -2.54 ± 0.23
37 °C
  self-splicing fitness (ln): -3.29 ± 0.39

## GCUCAGCAAUAUUACGCCUC
30 °C
  self-splicing fitness (ln): -1.49 ± 0.2
37 °C
  self-splicing fitness (ln): 0.48 ± 0.22

## UCAAAGCAAUAUUACGGCCA
30 °C
  self-splicing fitness (ln): -0.546 ± 0.13
37 °C
  self-splicing fitness (ln): -0.278 ± 0.11

## UGGCAGCAAUAUUACGGCCC
30 °C
  self-splicing fitness (ln): -1.18 ± 0.15
37 °C
  self-splicing fitness (ln): -0.287 ± 0.21

## UGCGAGCAAUAUUACGCCGA
37 °C
  self-splicing fitness (ln): -1.26 ± 0.4

## GGGUAGCAAUAUUACGCGCG
30 °C
  self-splicing fitness (ln): -0.435 ± 0.11
37 °C
  self-splicing fitness (ln): 0.558 ± 0.15
